In paper PMC3292583, “Poplar GTL1 Is a Ca2+/Calmodulin-Binding Transcription Factor that Functions in Plant Water Use Efficiency and Drought Tolerance”:

T1: PtaGTL1-C (C-terminal trihelix DNA-binding fragment) (Populus tremula x P. alba (clone …, UniProt G8G9Q9 528-779))
T1 sequence: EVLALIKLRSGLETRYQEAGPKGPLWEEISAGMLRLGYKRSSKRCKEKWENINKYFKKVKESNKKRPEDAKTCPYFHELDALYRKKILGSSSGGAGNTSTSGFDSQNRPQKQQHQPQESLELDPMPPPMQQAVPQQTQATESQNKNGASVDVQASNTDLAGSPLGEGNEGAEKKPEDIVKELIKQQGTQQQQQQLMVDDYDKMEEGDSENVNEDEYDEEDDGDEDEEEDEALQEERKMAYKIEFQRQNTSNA

B1: AtSDD1m (GT3 box GGTAAA to CCTAAA) (dsDNA)
DNA 1: TTCTTTGGCTTCCTAAAACTTCAATGGA
DNA 2: TCCATTGAAGTTTTAGGAAGCCAAAGAA
B2: AtSDD1 promoter fragment with GT3 box (dsDNA)
DNA 1: TTCTTTGGCTTGGTAAAACTTCAATGGA
DNA 2: TCCATTGAAGTTTTACCAAGCCAAAGAA
B3: PtSDD1m (GT2 box GGTAAT to CCTAAT) (dsDNA)
DNA 1: TTCGTGAATATCCTAATGATTAT
DNA 2: ATAATCATTAGGATATTCACGAA

How the values were obtained:
[1] = target: T1, PtaGTL1-C (C-terminal trihelix …); test: EMSA; LightShift Chemiluminescent EMSA kit, per cited earlier method; 200 ng biotin probe, 1000 ng competitor; binding buffer, salt, pH and temperature not stated (probes annealed in 10 mM Tris-HCl, 1 mM EDTA, pH 8.0); conditions: protein: recombinant; tags: N-terminal 6xHis (pDEST17); label: 3' biotin (probe); blunt
[2] = target: T1, PtaGTL1-C (C-terminal trihelix …); test: EMSA; text: mutation inhibited the interaction; LightShift Chemiluminescent EMSA kit, per cited earlier method; 200 ng biotin probe, 1000 ng competitor; binding buffer, salt, pH and temperature not stated (probes annealed in 10 mM Tris-HCl, 1 mM EDTA, pH 8.0); conditions: protein: recombinant; tags: N-terminal 6xHis (pDEST17); label: 3' biotin (probe); blunt

Binder | binding result [1] | binding result [2]
B1 | no binding | –
B2 | binds | –
B3 | – | no binding
